Data taken from patent publication US20100047232A1 (Genentech, published 2010).

B2: AP-Nogo66 (ligand, human, UniProt Q9NQC3 1055-1120, looked up)
chain: RIYKGVIQAIQKSDEGHPFRAYLESEVAISEELVQKYSNSALGHVNCTIKELRRLFLVDDLVDSLK
notes: also called AO-Nogo66; not shown: FLAG tag at the N-terminus; human placental alkaline phosphatase (AP)

Tests used:
AP-Nogo66 [1] = molecular target: B2; experiment: AP activity on transfected COS cells after incubation with AP-Nogo66
Protocol: In particular, on Day 1, COS7 cells were plated at a density of 85,000 cells per well in 12-well plates. On Day 2, 1 mg of pooled cDNA's were transfected per well using the lipid-based transfection reagent FuGENE 6 (Roche). On Day 4, screening was performed. Briefly, culture medium was removed from cells and replaced with 0.5 ml of 293 cell-conditioned medium containing AP-fusion bait proteins (20-50 nM). Cells were incubated at room temperature for 90 minutes. The cells were then washed 3 times with phosphate-buffered saline (PBS), fixed for 7 minutes with 4% paraformaldehyde, washed 3 times in HEPES-buffered saline (HBS), and heat inactivated at 65° C. for 90 minutes to destroy endogenous AP activity. The cells were washed once in AP Buffer (100 mM NaCl, 5 mM MgCl₂, 100 mM Tris pH 9.5), and incubated in chromogenic substrate (Western Blue, Promega), and analyzed for presence of reaction product one hour after incubation, and again after overnight incubation. Positive cells were identified by the presence of dark blue precipitate over the surface of the membrane. Positive pools were further broken down to identify individual positive clones by subsequent rounds of screening.
To confirm Nogo66 binding to LILRB2 (SEQ ID NO: 2), and to test if Nogo66 binds to the murine orthologue PirB (SEQ ID NO: 1), binding assays similar to those described in Example 1 were carried out. […]

[2] = molecular target: T1, Nogo Receptor (hit from the human cDNA library) (human, UniProt Q9BZR6 27-447); experiment: expression cloning, AP-fusion bait (20-50 nM) on COS7 cells transfected with human cDNA pools
T1 construct: whole, on cells; also called NgR; NgR1
T1 sequence (looked up): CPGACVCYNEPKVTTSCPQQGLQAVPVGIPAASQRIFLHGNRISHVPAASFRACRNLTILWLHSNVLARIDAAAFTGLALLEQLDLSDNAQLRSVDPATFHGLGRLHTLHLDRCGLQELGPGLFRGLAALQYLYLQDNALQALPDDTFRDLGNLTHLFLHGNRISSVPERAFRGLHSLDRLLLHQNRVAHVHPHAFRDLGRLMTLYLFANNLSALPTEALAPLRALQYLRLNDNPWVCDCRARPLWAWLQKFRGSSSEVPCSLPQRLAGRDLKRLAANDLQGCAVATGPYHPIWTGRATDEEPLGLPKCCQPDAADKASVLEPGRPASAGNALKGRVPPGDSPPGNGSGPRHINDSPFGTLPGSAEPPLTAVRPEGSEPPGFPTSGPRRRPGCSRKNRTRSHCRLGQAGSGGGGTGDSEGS
Excerpt: (§1) To identify novel receptors for inhibitory myelin proteins, an expression cloning approach was taken. As bait, constructs were generated that fused Alkaline Phosphatase (AP) to the N- and/or C-terminus of the following characterized myelin inhibitors (human cDNA used): Nogo66, two additional inhibitory domains of NogoA (NiRD2 and NiG20) (Oertle T, J. Neurosci. 2003, 23(13): 5393-406), MAG, and OMgp. These constructs were transfected into 293 cells to produce conditioned medium (in DMEM/2% FBS) containing the bait proteins. The cDNA library used in the screen was comprised of full-length human cDNA clones in expression-ready vectors generated by Origene. These cDNAs were compiled, arrayed, and pooled. Pools of approximately 100 cDNA's were transiently transfected into COS7 cells.
(§2) In particular, on Day 1, COS7 cells were plated at a density of 85,000 cells per well in 12-well plates. On Day 2, 1 mg of pooled cDNA's were transfected per well using the lipid-based transfection reagent FuGENE 6 (Roche). On Day 4, screening was performed. […] The cells were washed once in AP Buffer (100 mM NaCl, 5 mM MgCl₂, 100 mM Tris pH 9.5), and incubated in chromogenic substrate (Western Blue, Promega), and analyzed for presence of reaction product one hour after incubation, and again after overnight incubation. […]

AP-Nogo66 [3] = molecular target: B2; experiment: as above
Excerpt: as §1, §2

B1: PirB (paired-immunoglobulin-like receptor B), mouse (receptor)
chain: SLPKPILRVQPDSVVSRWTKVTFFCEETIGANEYRLYKDGKLYKTVTKNKQKPANKAEFSLSNVDLRNAGQYRCSYSTQYKSSGYSDPLELVVTGDYWTPSLLAQASPVVTSGGYVTLQCESWHNDHKFILTVEGPQKLSWTQDSQYNYSTRKYHALFSVGPVTPNQRWICRCYSYDRNRPYVWSPPSESVELLVSGNLQKPTIKAEPGPVIASKRAMTIWCQGNLDAEVYFLHNEGSQKTQSTQTLQQPGNKGKFFIPSMTRQHAGQYRCYCYGSAGWSQPSDTLELVVTGIYEHYKPRLSVLPSPVVTAGGNMTLHCASDFHYDKFILTKEDKKFGNSLDTEHISSSRQYRALFIIGPTTPTHTGTFRCYGYFKNAPQLWSVPSDLQQILISGLSKKPSLLTHQGHILDPGMTLTLQCYSDINYDRFALHKVGGADIMQHSSQQTDTGFSVANFTLGYVSSSTGGQYRCYGAHNLSSEWSASSEPLDILITGQLPLTPSLSVKPNHTVHSGETVSLLCWSMDSVDTFILSKEGSAQQPLRLKSKSHDQQSQAEFSMSAVTSHLSGTYRCYGAQNSSFYLLSSASAPVELTVSGPIETSTPPPTMSMPLGGLHMYLKALIGVSVAFILFLFILIFILLRRRHRGKFRKDVQKEKDLQLSSGAEEPITRKGELQKRPNPAAATQEESLYASVEDMQTEDGVELNSWTPPEEDPQGETYAQVKPSRLRKAGHVSPSVMSREQLNTEYEQAEEGQGANNQAAESGESQDVTYAQLCSRTLRQGAAASPLSQAGEAPEEPSVYATLAAARPEAVPKDVEQ
notes: Expressed from cDNA in transfected COS7 cells; also called murine orthologue PirB
AP-Nogo66 [1]
  binding result: binds

## B2
[2]
  binding result: binds

B3: LILRB2, transcript variant 1 (leukocyte immunoglobulin-like receptor, subfamily B, member 2) (receptor)
chain: QTGTIPKPTLWAEPDSVITQGSPVTLSCQGSLEAQEYRLYREKKSASWITRIRPELVKNGQFHIPSITWEHTGRYGCQYYSRARWSELSDPLVLVMTGAYPKPTLSAQPSPVVTSGGRVTLQCESQVAFGGFILCKEGEDEHPQCLNSQPHARGSSRAIFSVGPVSPNRRWSHRCYGYDLNSPYVWSSPSDLLELLVPGVSKKPSLSVQPGPVVAPGESLTLQCVSDVGYDRFVLYKEGERDLRQLPGRQPQAGLSQANFTLGPVSRSYGGQYRCYGAYNLSSEWSAPSDPLDILITGQIHGTPFISVQPGPTVASGENVTLLCQSWRQFHTFLLTKAGAADAPLRLRSIHEYPKYQAEFPMSPVTSAHAGTYRCYGSLNSDPYLLSHPSEPLELVVSGPSMGSSPPPTGPISTPAGPEDQPLTPTGSDPQSGLGRHLGVVIGILVAVVLLLLLLLLLFLILRHRRQGKHWTSTQRKADFQHPAGAVGPEPTDRGLQWRSSPAADAQEENLYAAVKDTQPEDGVEMDTRAAASEAPQDVTYAQLHSLTLRRKATEPPPSQEREPPAEPSIYATLAIH
notes: Expressed from full-length human cDNA in transfected COS7 cells; also called LIRB2; MIG10
AP-Nogo66 [3]
  binding result: binds
